# Source: patent US20100272721A1, “TREATMENT OF CANCER” (Biogen Idec MA Inc., priority 2005, published 2010)
# B1: Tweak: TNF-like weak inducer of apoptosis, a member of the tumor-necrosis factor (TNF) superfamily of cytokines (protein, listed as Homo sapiens)
# chain: MAARRSQRRRGRRGEPGTALLVPLALGLGLALACLGLLLAVVSLGSRASLSAQEPAQEELVAEEDQDPSELNPQTEESQDPAPFLNRLVRPRRSAPKGRKTRARRAIAAHYEVHPRPGQDGAQAGVDGTVSGWEEARINSSSPLRYNRQIGEFIVTRAGLYYLYCQVHFDEGKAVYLKLDLLVDGVLALRCLEEFSATAASSLGPQLRLCQVSGLLALRPGSSLRIRTLPWAHLKAAPFLTYFGLFQVH
# B2: P2D10: exemplary murine anti-Tweak antibody; heavy chain variable domain SEQ ID NO:3, light chain variable domain SEQ ID NO:4 (antibody, listed as Mus musculus, V domains shown)
# VH: EVQLVESGGGLVRPGGSLKLFCAASGFTFSRYAMSWVRQSPEKRLEWVAEISSGGSYPYYPDTVTGRFTISRDNAKNTLYLEMSSLKSEDTAMYYCARVLYYDYDGDRIEVMDYWGQGTAVIVSS
# VL: DVVMTQSPLSLSVSLGDQASISCRSSQSLVSSKGNTYLHWYLQKPGQSPKFLIYKVSNRFSGVPDRFSGSGSGTDFTLKISRVAAEDLGVYFCSQSTHFPRTFGGGTTLEIK
# How the values were obtained:
# [1] = tested on: Human pancreatic tumor cells BxPc3, Panc1 and MiaPaCa2; test: cell invasion assay on matrigel-coated membranes in transwell plates; assay type: cell-based; details: Tweak 50 ng/ml; BxPc-3, Panc-1 and MiaPaCa; measured after 48 hours; FIG. 1
# Description: FIG. 1 is a bar graph showing results from an invasion assay of human pancreatic cell lines with and without added Tweak (Tk), and in the presence or absence of an anti-Tweak antibody (p5g9). HGF is a positive control.
# To measure the effect of Tweak on pancreatic tumor cell line invasiveness, cell invasion assays were performed. Human pancreatic tumor cells BxPc3, Panc1 and MiaPaCa2 were plated on matrigel-coated membranes in transwell plates. TWEAK was added to the medium, and the number of cells that invade was measured after 48 hours. BSA was used as a negative control and HGF as a positive control in these experiments.
# [2] = tested on: mammary epithelial line Eph4; test: 3-D culture model system of the mammary epithelial line Eph4; assay type: cell-based; details: Eph4 3-D culture
# Text: We detect Fn14 protein in human tumor cell lines and in xenograft and primary breast tumor samples. Fn14 expression is detected in the majority of human breast tumors but not in normal breast tissue samples. […] The capacity to promote proliferation, inhibit differentiation and induce invasion is consistent with a role for TWEAK in tumorigenesis.
# [3] = tested on: Human pancreatic cells (BxPc-3); test: BxPc-3 xenograft pancreatic cancer model; assay type: in vivo; details: BxPc-3 subcutaneous in nude mice; IP administration started after 2 weeks; versus control antibody (P1.17) or PBS; FIG. 2
# Description: FIG. 2 is a graph showing growth of human pancreatic tumor cell line BxPc-3 in a xenograft animal model, with and without anti-Tweak antibody (P2D10) treatment.
# Human pancreatic cells (BxPc-3) were injected subcutaneously into nude mice. After 2 weeks, when the tumors were […], the mice (9-10 per group) were treated with an anti-TWEAK antibody (P2D10), a control antibody (P1.17) or PBS, by IP administration.
Molecule,invasion of human pancreatic cell lines (number of cells that invade) [1],"morphogenic phenotype (proliferation, invasiveness, functional differentiation) ([2]; TWEAK treatment)",matrix metalloproteinase MMP-9 expression ([2]; following TWEAK treatment),tumor size [3]
B1,induced invasion,induces a dramatic branching morphogenic phenotype,significantly up-regulated,
B2,,,,statistically significant reduction in tumor size
